We go through six molecules from article PMC8292550, “Molecular characterization of direct interactions between MPP1 and flotillins” (Scientific Reports, 2021).

T1: full length recombinant MPP1 (human, UniProt Q00013 1-466)
T1 construct: MPP1 (p55), human erythroid, full length; also called p55; MPP1(p55)
T1 sequence (looked up): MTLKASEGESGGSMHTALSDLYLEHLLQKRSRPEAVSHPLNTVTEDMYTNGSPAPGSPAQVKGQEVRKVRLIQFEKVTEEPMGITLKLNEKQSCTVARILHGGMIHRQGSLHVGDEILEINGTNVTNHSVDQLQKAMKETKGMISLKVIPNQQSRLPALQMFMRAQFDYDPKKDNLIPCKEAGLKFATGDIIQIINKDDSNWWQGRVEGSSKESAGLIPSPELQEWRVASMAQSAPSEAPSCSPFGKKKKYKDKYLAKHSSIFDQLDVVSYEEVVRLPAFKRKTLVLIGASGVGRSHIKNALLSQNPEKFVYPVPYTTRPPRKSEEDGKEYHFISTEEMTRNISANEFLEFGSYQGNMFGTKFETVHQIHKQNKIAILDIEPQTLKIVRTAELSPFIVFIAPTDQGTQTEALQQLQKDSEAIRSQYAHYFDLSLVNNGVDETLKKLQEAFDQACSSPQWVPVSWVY

B1: MPP1-Mut4 (residues 231–466) (domain or fragment, human, UniProt Q00013 231-466, looked up)
chain: MAQSAPSEAPSCSPFGKKKKYKDKYLAKHSSIFDQLDVVSYEEVVRLPAFKRKTLVLIGASGVGRSHIKNALLSQNPEKFVYPVPYTTRPPRKSEEDGKEYHFISTEEMTRNISANEFLEFGSYQGNMFGTKFETVHQIHKQNKIAILDIEPQTLKIVRTAELSPFIVFIAPTDQGTQTEALQQLQKDSEAIRSQYAHYFDLSLVNNGVDETLKKLQEAFDQACSSPQWVPVSWVY
notes: MPP1 (p55), human, residues 231-466; A FLAG form (p3XFLAG-CMV-10) was expressed in HEL cells for the functional tests only
B2: endogenous MPP1 (HEL cells) (natural protein)
chain: T1 sequence (looked up)
B3: MPP1-Mut2 (residues 151–237) (domain or fragment, human, UniProt Q00013 151-237, looked up)
chain: NQQSRLPALQMFMRAQFDYDPKKDNLIPCKEAGLKFATGDIIQIINKDDSNWWQGRVEGSSKESAGLIPSPELQEWRVASMAQSAPS
notes: MPP1 (p55), human, residues 151-237
B4: recombinant His-tagged flotillin 2 (natural protein, UniProt Q14254 1-428, looked up)
chain: MGNCHTVGPNEALVVSGGCCGSDYKQYVFGGWAWAWWCISDTQRISLEIMTLQPRCEDVETAEGVALTVTGVAQVKIMTEKELLAVACEQFLGKNVQDIKNVVLQTLEGHLRSILGTLTVEQIYQDRDQFAKLVREVAAPDVGRMGIEILSFTIKDVYDKVDYLSSLGKTQTAVVQRDADIGVAEAERDAGIREAECKKEMLDVKFMADTKIADSKRAFELQKSAFSEEVNIKTAEAQLAYELQGAREQQKIRQEEIEIEVVQRKKQIAVEAQEILRTDKELIATVRRPAEAEAHRIQQIAEGEKVKQVLLAQAEAEKIRKIGEAEAAVIEAMGKAEAERMKLKAEAYQKYGDAAKMALVLEALPQIAAKIAAPLTKVDEIVVLSGDNSKVTSEVNRLLAELPASVHALTGVDLSKIPLIKKATGVQV
notes: flotillin 2; also called FL2
B5: recombinant His-tagged flotillin 1 (natural protein, UniProt O75955-1 1-427, looked up)
chain: MFFTCGPNEAMVVSGFCRSPPVMVAGGRVFVLPCIQQIQRISLNTLTLNVKSEKVYTRHGVPISVTGIAQVKIQGQNKEMLAAACQMFLGKTEAEIAHIALETLEGHQRAIMAHMTVEEIYKDRQKFSEQVFKVASSDLVNMGISVVSYTLKDIHDDQDYLHSLGKARTAQVQKDARIGEAEAKRDAGIREAKAKQEKVSAQYLSEIEMAKAQRDYELKKAAYDIEVNTRRAQADLAYQLQVAKTKQQIEEQRVQVQVVERAQQVAVQEQEIARREKELEARVRKPAEAERYKLERLAEAEKSQLIMQAEAEAASVRMRGEAEAFAIGARARAEAEQMAKKAEAFQLYQEAAQLDMLLEKLPQVAEEISGPLTSANKITLVSSGSGTMGAAKVTGEVLDILTRLPESVERLTGVSISQVNHKPLRTA
notes: flotillin 1; the discussion speaks of bacterially expressed proteins; also called FL1
B6: MPP1-Mut3 (residues 211–292) (domain or fragment, human, UniProt Q00013 211-292, looked up)
chain: SKESAGLIPSPELQEWRVASMAQSAPSEAPSCSPFGKKKKYKDKYLAKHSSIFDQLDVVSYEEVVRLPAFKRKTLVLIGASG
notes: MPP1 (p55), human, residues 211-292

Experiment [1] addresses B4. The experiment in a line: SPR; His-tagged flotillin 1 or 2 captured on a Ni-NTA sensor chip (about 4000 RU), BIAcore T200; untagged MPP1 or its truncated mutants as analytes (at least five concentrations, 50-2000 nM), association 360 s, dissociation 600 s; HBS-T; global fit, 1:1 Langmuir model with mass transport step. As to conditions: both partners purified. A general note: SPR reads the build-up and loss of mass on a sensor chip optically.

Experiment [2] has as its target B5. The experiment is described as above. The conditions noted are these: both partners purified.
Experiment [3] deals with flotillins (endogenous, HEL cells).
For experiment [4] the target is unchanged. The source holds these as a separate data set.
Experiment [5] addresses B4. The experiment in a line: SPR; His-tagged flotillin 1 or 2 captured on a Ni-NTA sensor chip (about 4000 RU), BIAcore T200; untagged MPP1 or its truncated mutants as analytes (at least five concentrations, 50-2000 nM), association 360 s, dissociation 600 s; HBS-T; global fit, 1:1 Langmuir model with mass transport step. The conditions noted are these: both partners purified. This is another data set of the same source.

The target in experiment [6] is T1, full length recombinant MPP1. Described as above. The conditions noted are these: both partners purified.

For orientation: Kd means the free concentration of one partner at which half of the binding sites on the other are occupied at equilibrium, for simple one-to-one binding. What is called koff is the first-order rate constant of dissociation. By kon is commonly meant a measure of how fast the partners come together. As to B1, in experiment [1], the Kd stood at 50.2 nM, the koff was 0.000281 s⁻¹ and the kon was determined as 5600 M⁻¹ s⁻¹. Also, in experiment [2], the Kd was 39.2 nM, the off-rate constant (koff) was 0.000319 s⁻¹ and the kon was found to be 8130 M⁻¹ s⁻¹.

In experiment [3], B2 returned a fluorescence lifetime of di-4-ANEPPDHQ (FLIM) in the plasma membrane of HEL cells transfected with MPP1-Mut4-FLAG (~ 3.83 ns) compared to FLAG control (~ 3.98 ns) of 0.15 ns. For the same molecule, the reduction of the pERK1/2 level after insulin stimulation in HEL cells transfected with MPP1-Mut4 compared to FLAG control in experiment [4] came out at 46%.

As to B3, in experiment [1], the Kd was 982 nM, the koff is 0.0016 s⁻¹ and the kon amounted to 1630 M⁻¹ s⁻¹. Also, in experiment [2], the Kd is 702 nM, the koff was determined as 0.00118 s⁻¹ and the kon stood at 1680 M⁻¹ s⁻¹. Besides, in experiment [5], the Kd is 686 nM.

For the molecule B4, in experiment [6], the Kd stood at 31 nM, the koff was 0.00128 s⁻¹ and the kon is 41300 M⁻¹ s⁻¹.

Regarding B5, in experiment [6], the Kd amounted to 22.8 nM, the koff came out at 0.00103 s⁻¹ and the kon worked out at 45000 M⁻¹ s⁻¹.

For the molecule B6, in experiment [1], the dissociation constant (Kd) was determined as 199 nM, the koff is 0.000828 s⁻¹ and the kon was determined as 4170 M⁻¹ s⁻¹. In experiment [2], the Kd is 137 nM, the koff turned out to be 0.000515 s⁻¹ and the kon was 3750 M⁻¹ s⁻¹.
